Experimental data published in the Human Domainome abundance scans (Beltran et al. 2025).
± gives the uncertainty stated by the source.

B1: Chromodomain-helicase-DNA-binding protein 3, residues 374 to 426; numbered along this chain, Q12873 (parent)
chain: YETDHQDYCEVCQQGGEIILCDTCPRAYHLVCLDPELDRAPEGKWSCPHCEKE

Variants of: B1
Experiment: abundance fitness (aPCA) (normalised: wild type 0, dead -1); higher = more abundant; growth selection in yeast, the domain comes from the species named
Conditions: Homo sapiens
Work on G16W yielded an abundance fitness of 0.025 ± 0.12.
For G16L, the abundance fitness was -0.097 ± 0.11.
In the case of G16H, the abundance fitness is reported as -0.057 ± 0.17.
In the case of G16F, the abundance fitness is reported as -0.156 ± 0.28.
In the case of G16R, the abundance fitness is reported as 0.197 ± 0.083.
Variant G16N has an abundance fitness of 0.157 ± 0.16.
With G16Y the abundance fitness was 0.033 ± 0.15.
In the case of G16C, the abundance fitness is reported as -0.256 ± 0.14.
Work on G16Q yielded an abundance fitness of -0.251 ± 0.19.
G16M gave an abundance fitness of -0.237 ± 0.15.
With G16K the abundance fitness was 0.346 ± 0.13.
With G16T the abundance fitness was 0.234 ± 0.13.
Work on G16V yielded an abundance fitness of -0.113 ± 0.11.
With G16I the abundance fitness was 0.079 ± 0.17.
In the case of G16D, the abundance fitness is reported as -0.053 ± 0.18.
With G16S the abundance fitness was 0.118 ± 0.1.
G16P gave an abundance fitness of -0.423 ± 0.13.
With G16E the abundance fitness was 0.07 ± 0.15.
H29L gave an abundance fitness of -0.763 ± 0.12.
Work on H29R yielded an abundance fitness of -0.786 ± 0.097.
With H29T the abundance fitness was -0.846 ± 0.15.
Work on H29S yielded an abundance fitness of -0.852 ± 0.13.
Work on H29A yielded an abundance fitness of -0.745 ± 0.11.
For H29C, the abundance fitness was 0.029 ± 0.13.
In the case of H29V, the abundance fitness is reported as -0.745 ± 0.11.
In the case of H29I, the abundance fitness is reported as -1.09 ± 0.22.
Work on H29F yielded an abundance fitness of -1.07 ± 0.19.
Work on H29N yielded an abundance fitness of -0.383 ± 0.17.
Variant H29P has an abundance fitness of -0.801 ± 0.17.
Work on H29K yielded an abundance fitness of -0.912 ± 0.17.
H29G showed an abundance fitness of -0.844 ± 0.11.
Work on H29D yielded an abundance fitness of -0.615 ± 0.15.
In the case of H29W, the abundance fitness is reported as -0.656 ± 0.14.
H29E showed an abundance fitness of -0.872 ± 0.14.
H29Y showed an abundance fitness of -1.1 ± 0.19.
With A27K the abundance fitness was -0.407 ± 0.41.
Variant E17Y has an abundance fitness of -0.031 ± 0.17.
With E17M the abundance fitness was 0.152 ± 0.13.
Work on E17D yielded an abundance fitness of -0.047 ± 0.13.
For E17A, the abundance fitness was -0.081 ± 0.1.
E17V gave an abundance fitness of -0.489 ± 0.11.
E17H showed an abundance fitness of -0.882 ± 0.33.
For E17C, the abundance fitness was -0.037 ± 0.11.
With E17Q the abundance fitness was -0.147 ± 0.14.
For E17R, the abundance fitness was -0.148 ± 0.085.
In the case of E17T, the abundance fitness is reported as 0.053 ± 0.12.
Variant E17P has an abundance fitness of -0.558 ± 0.14.
In the case of E17L, the abundance fitness is reported as -0.258 ± 0.11.
In the case of E17I, the abundance fitness is reported as -0.353 ± 0.2.
In the case of E17S, the abundance fitness is reported as -0.087 ± 0.094.
Variant E17F has an abundance fitness of -0.162 ± 0.14.
For E17G, the abundance fitness was -0.234 ± 0.094.
In the case of E17N, the abundance fitness is reported as 0.07 ± 0.17.
In the case of V11S, the abundance fitness is reported as 0.284 ± 0.068.
Work on V11T yielded an abundance fitness of 0.269 ± 0.078.
V11N gave an abundance fitness of 0.182 ± 0.094.
Variant V11Y has an abundance fitness of 0.085 ± 0.1.
Work on V11K yielded an abundance fitness of 0.258 ± 0.087.
Variant V11L has an abundance fitness of 0.145 ± 0.073.
V11Q showed an abundance fitness of -0.217 ± 0.098.
V11M showed an abundance fitness of 0.279 ± 0.083.
Variant V11W has an abundance fitness of -0.266 ± 0.089.
V11P showed an abundance fitness of 0.029 ± 0.087.
With V11H the abundance fitness was 0.362 ± 0.11.
In the case of V11R, the abundance fitness is reported as 0.12 ± 0.072.
C24M gave an abundance fitness of -0.914 ± 0.24.
Variant C24G has an abundance fitness of -0.962 ± 0.14.
C24W gave an abundance fitness of -1.12 ± 0.19.
C24E gave an abundance fitness of -1.16 ± 0.26.
Variant C24F has an abundance fitness of -1.05 ± 0.23.
Work on C24H yielded an abundance fitness of -0.907 ± 0.25.
Work on C24T yielded an abundance fitness of -0.687 ± 0.17.
Work on C24K yielded an abundance fitness of -0.919 ± 0.21.
For C24S, the abundance fitness was -0.617 ± 0.15.
C24A showed an abundance fitness of -0.799 ± 0.23.
C24P showed an abundance fitness of -1.11 ± 0.21.
In the case of C24V, the abundance fitness is reported as -1.08 ± 0.15.
In the case of C24I, the abundance fitness is reported as -0.9 ± 0.35.
C24R gave an abundance fitness of -0.951 ± 0.14.
With C24Y the abundance fitness was -1.34 ± 0.24.
Work on C24D yielded an abundance fitness of -0.754 ± 0.22.
Work on C24Q yielded an abundance fitness of -0.898 ± 0.24.
In the case of L20E, the abundance fitness is reported as -0.003 ± 0.14.
In the case of L20Y, the abundance fitness is reported as 0.102 ± 0.16.
In the case of L20P, the abundance fitness is reported as 0.402 ± 0.11.
L20D showed an abundance fitness of 0.015 ± 0.16.
In the case of L20S, the abundance fitness is reported as 0.171 ± 0.095.
Work on L20V yielded an abundance fitness of -0.078 ± 0.099.
In the case of L20R, the abundance fitness is reported as 0.149 ± 0.094.
Variant L20G has an abundance fitness of 0.208 ± 0.099.
For L20I, the abundance fitness was 0.076 ± 0.17.
Work on L20N yielded an abundance fitness of 0.101 ± 0.15.
For L20Q, the abundance fitness was -0.143 ± 0.13.
L20K gave an abundance fitness of 0.081 ± 0.11.
In the case of L20T, the abundance fitness is reported as 0.262 ± 0.098.
L20F gave an abundance fitness of 0.037 ± 0.15.
Work on L20C yielded an abundance fitness of 0.01 ± 0.15.
With L20W the abundance fitness was -0.205 ± 0.16.
For L20M, the abundance fitness was 0.047 ± 0.12.
With Q13K the abundance fitness was -0.051 ± 0.1.
Q13A showed an abundance fitness of -0.237 ± 0.1.
Q13M showed an abundance fitness of 0.084 ± 0.09.
In the case of Q13P, the abundance fitness is reported as -0.783 ± 0.13.
Variant Q13D has an abundance fitness of -0.346 ± 0.12.
Q13G showed an abundance fitness of -0.194 ± 0.1.
In the case of Q13F, the abundance fitness is reported as 0.012 ± 0.12.
Variant Q13V has an abundance fitness of -0.057 ± 0.084.
In the case of Q13Y, the abundance fitness is reported as -0.015 ± 0.11.
With Q13H the abundance fitness was 0.059 ± 0.11.
In the case of Q13W, the abundance fitness is reported as -0.363 ± 0.12.
Q13N gave an abundance fitness of -0.084 ± 0.13.
Variant Q13C has an abundance fitness of -0.048 ± 0.12.
For Q13S, the abundance fitness was -0.019 ± 0.084.
In the case of Q13R, the abundance fitness is reported as 0.01 ± 0.081.
Work on Q13E yielded an abundance fitness of -0.09 ± 0.12.
With I19S the abundance fitness was -0.162 ± 0.11.
In the case of I19G, the abundance fitness is reported as -0.177 ± 0.087.
With I19F the abundance fitness was -0.277 ± 0.22.
Variant I19D has an abundance fitness of -0.248 ± 0.14.
I19T showed an abundance fitness of 0.051 ± 0.11.
For I19M, the abundance fitness was 0.313 ± 0.14.
Work on I19K yielded an abundance fitness of 0.19 ± 0.13.
I19Q gave an abundance fitness of 0.068 ± 0.16.
Variant I19Y has an abundance fitness of 0.117 ± 0.18.
I19R showed an abundance fitness of -0.101 ± 0.1.
In the case of I19N, the abundance fitness is reported as 0.167 ± 0.22.
I19L showed an abundance fitness of 0.093 ± 0.097.
I19H gave an abundance fitness of -0.111 ± 0.25.
I19V gave an abundance fitness of -0.153 ± 0.1.
Work on Q14V yielded an abundance fitness of -0.129 ± 0.14.
Q14N gave an abundance fitness of 0.016 ± 0.15.
With Q14F the abundance fitness was -0.26 ± 0.12.
Variant Q14H has an abundance fitness of -0.159 ± 0.15.
Q14T showed an abundance fitness of -0.051 ± 0.1.
Q14Y showed an abundance fitness of -0.501 ± 0.2.
With Q14I the abundance fitness was -0.17 ± 0.17.
Variant Q14R has an abundance fitness of 0.017 ± 0.088.
Q14C gave an abundance fitness of -0.036 ± 0.13.
With Q14M the abundance fitness was -0.022 ± 0.14.
For Q14P, the abundance fitness was -1 ± 0.22.
With Q14G the abundance fitness was -0.151 ± 0.15.
For Q14A, the abundance fitness was -0.043 ± 0.12.
Q14D showed an abundance fitness of -0.166 ± 0.18.
Q14S gave an abundance fitness of -0.192 ± 0.096.
Q14L gave an abundance fitness of -0.127 ± 0.1.
In the case of Q14E, the abundance fitness is reported as -0.029 ± 0.43.
Work on C12P yielded an abundance fitness of -0.76 ± 0.13.
C12A showed an abundance fitness of -0.712 ± 0.15.
In the case of C12V, the abundance fitness is reported as -0.78 ± 0.14.
With C12L the abundance fitness was -0.866 ± 0.099.
In the case of C12F, the abundance fitness is reported as -0.903 ± 0.23.
For C12S, the abundance fitness was -0.956 ± 0.11.
Work on C12H yielded an abundance fitness of -0.999 ± 0.17.
C12G showed an abundance fitness of -0.845 ± 0.11.
For C12Y, the abundance fitness was -0.871 ± 0.13.
Work on C12N yielded an abundance fitness of -0.67 ± 0.17.
C12K gave an abundance fitness of -0.757 ± 0.15.
In the case of C12R, the abundance fitness is reported as -0.954 ± 0.094.
Work on C12T yielded an abundance fitness of -0.813 ± 0.12.
C12D gave an abundance fitness of -0.7 ± 0.34.
C12I gave an abundance fitness of -0.947 ± 0.2.
C12W showed an abundance fitness of -0.836 ± 0.11.
C12E gave an abundance fitness of -0.83 ± 0.16.
In the case of Y28M, the abundance fitness is reported as 0.219 ± 0.14.
In the case of Y28R, the abundance fitness is reported as -0.256 ± 0.1.
For Y28C, the abundance fitness was -0.189 ± 0.15.
For Y28E, the abundance fitness was -0.48 ± 0.21.
